Residue numbers refer to the chain shown, from its start. Names may count otherwise. Blank lines part the entries; values can stand above or below the binder they belong to.
Assays:
[1] = target: human FGFR1c/KLB receptor complex on primary human adipocytes (human, UniProt P11362 22-822; Q86Z14 1-1044); experiment: cell-based or functional assay
[2] = target: cell surface receptor composed of FGFR1c and co-receptor beta-Klotho (KLB) on iLite FGF21 Assay Ready Cells (human, UniProt P11362 22-822; Q86Z14 1-1044); experiment: cell-based or functional assay
cell surface receptor composed of FGFR1c and co-receptor beta-Klotho (KLB) on iLite FGF21 Assay Ready Cells, sequence (P11362 22-822, chain 1 of 2): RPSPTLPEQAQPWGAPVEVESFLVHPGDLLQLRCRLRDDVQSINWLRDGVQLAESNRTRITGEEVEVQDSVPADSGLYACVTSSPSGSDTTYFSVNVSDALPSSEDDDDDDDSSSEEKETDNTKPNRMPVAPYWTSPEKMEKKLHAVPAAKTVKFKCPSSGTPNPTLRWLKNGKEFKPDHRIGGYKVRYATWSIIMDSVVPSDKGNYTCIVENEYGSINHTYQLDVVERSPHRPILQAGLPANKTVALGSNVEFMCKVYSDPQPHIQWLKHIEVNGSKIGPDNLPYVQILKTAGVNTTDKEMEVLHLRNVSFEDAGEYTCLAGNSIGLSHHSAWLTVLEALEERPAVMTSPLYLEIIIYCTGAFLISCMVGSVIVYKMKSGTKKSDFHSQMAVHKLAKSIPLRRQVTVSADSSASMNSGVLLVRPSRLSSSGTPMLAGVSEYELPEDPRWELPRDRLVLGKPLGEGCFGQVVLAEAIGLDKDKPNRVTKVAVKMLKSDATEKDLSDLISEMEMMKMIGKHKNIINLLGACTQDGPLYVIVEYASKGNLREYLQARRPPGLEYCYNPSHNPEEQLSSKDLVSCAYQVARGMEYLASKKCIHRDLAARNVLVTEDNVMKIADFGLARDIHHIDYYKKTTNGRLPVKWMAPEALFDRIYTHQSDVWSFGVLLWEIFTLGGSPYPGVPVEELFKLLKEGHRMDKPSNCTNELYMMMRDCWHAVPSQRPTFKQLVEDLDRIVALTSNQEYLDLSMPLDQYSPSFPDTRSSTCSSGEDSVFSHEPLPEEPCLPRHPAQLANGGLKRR
cell surface receptor composed of FGFR1c and co-receptor beta-Klotho (KLB) on iLite FGF21 Assay Ready Cells, sequence (Q86Z14 whole entry, chain 2 of 2): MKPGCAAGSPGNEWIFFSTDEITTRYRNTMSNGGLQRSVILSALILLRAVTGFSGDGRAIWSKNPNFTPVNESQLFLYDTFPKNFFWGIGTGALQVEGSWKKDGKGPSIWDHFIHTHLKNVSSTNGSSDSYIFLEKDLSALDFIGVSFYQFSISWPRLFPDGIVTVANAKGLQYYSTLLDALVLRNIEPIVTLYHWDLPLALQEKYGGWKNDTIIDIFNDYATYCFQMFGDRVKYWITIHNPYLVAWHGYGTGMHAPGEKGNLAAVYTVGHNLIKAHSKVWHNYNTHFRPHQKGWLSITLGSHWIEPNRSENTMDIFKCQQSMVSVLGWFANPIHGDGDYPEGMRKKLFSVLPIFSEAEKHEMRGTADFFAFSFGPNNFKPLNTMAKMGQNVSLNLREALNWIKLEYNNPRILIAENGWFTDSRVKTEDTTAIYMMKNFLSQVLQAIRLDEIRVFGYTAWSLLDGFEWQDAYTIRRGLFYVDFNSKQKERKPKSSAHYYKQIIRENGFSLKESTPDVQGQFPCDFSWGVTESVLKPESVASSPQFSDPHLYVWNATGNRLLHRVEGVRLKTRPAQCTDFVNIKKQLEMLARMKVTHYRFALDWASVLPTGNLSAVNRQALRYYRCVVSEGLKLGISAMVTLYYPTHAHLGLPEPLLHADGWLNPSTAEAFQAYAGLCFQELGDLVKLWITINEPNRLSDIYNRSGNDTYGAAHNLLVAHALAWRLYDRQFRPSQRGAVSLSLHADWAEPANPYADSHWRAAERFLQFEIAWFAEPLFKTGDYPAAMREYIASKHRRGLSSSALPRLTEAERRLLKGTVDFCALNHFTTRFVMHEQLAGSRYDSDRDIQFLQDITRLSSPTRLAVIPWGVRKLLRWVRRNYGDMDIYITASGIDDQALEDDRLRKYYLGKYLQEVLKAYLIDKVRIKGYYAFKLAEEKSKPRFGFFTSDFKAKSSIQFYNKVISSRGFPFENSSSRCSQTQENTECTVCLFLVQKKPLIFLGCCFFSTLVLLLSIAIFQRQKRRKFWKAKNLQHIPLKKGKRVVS

human beta-Klotho (KLB) [3] = target: T1, human beta-Klotho (KLB) (human, UniProt Q86Z14 53-997); experiment: BLI off-rate screen
T1 construct: bought recombinant protein, analyte of the BLI off-rate screen; also called human KLB
T1 sequence (looked up): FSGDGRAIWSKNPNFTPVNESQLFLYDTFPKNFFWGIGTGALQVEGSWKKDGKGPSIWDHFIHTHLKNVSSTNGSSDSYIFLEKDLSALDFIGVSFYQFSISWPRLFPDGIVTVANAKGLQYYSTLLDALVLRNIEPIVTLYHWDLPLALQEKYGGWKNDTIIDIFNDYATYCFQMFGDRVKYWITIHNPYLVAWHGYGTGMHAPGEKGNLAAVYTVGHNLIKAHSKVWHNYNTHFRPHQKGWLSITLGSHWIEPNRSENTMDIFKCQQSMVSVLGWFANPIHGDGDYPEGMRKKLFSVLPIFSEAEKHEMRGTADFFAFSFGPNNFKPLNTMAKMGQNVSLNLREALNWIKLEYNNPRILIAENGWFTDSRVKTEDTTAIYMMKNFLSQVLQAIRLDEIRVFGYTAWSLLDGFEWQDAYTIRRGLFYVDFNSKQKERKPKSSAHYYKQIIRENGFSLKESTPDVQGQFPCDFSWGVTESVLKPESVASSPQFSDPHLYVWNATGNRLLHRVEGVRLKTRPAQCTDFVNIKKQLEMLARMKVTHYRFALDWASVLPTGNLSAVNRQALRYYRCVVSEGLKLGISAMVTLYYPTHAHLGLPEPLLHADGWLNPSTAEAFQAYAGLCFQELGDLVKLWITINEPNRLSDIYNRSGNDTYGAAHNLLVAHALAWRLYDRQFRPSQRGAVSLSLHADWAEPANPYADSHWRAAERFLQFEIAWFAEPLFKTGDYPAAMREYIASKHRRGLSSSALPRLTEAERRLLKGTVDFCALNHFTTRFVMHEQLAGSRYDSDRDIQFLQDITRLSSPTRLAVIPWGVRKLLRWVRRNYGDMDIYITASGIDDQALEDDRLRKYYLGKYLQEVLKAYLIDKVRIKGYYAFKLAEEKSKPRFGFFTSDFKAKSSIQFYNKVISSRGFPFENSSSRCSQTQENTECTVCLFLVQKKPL

[4] = target: cell-surface receptor complex of human FGFR1c and beta-Klotho (KLB) on iLite FGF21 reporter cells (human, UniProt P11362 22-822; Q86Z14 1-1044); experiment: cell-based or functional assay
human beta-Klotho (KLB) [5] = target: T2, human beta-Klotho (KLB) (human, UniProt Q86Z14 53-997); experiment: BLI off-rate screening (Octet HTX), antibody from supernatant on anti-hIgG Fc capture sensors, KLB 5 nmol/L as analyte
T2 construct: the BLI off-rate screen was run with human and with monkey KLB; also called human KLB; ß-Klotho
T2 sequence (looked up): T1 sequence (looked up)

human FGFR1c/KLB receptor complex on primary human adipocytes, sequence (P11362 22-822, chain 1 of 2): as the sequence (P11362 22-822, chain 1 of 2) above
human FGFR1c/KLB receptor complex on primary human adipocytes, sequence (Q86Z14 whole entry, chain 2 of 2): as the sequence (Q86Z14 whole entry, chain 2 of 2) above

B2: Ab0331 (antibody, human IgG4 S228P, lambda)
heavy: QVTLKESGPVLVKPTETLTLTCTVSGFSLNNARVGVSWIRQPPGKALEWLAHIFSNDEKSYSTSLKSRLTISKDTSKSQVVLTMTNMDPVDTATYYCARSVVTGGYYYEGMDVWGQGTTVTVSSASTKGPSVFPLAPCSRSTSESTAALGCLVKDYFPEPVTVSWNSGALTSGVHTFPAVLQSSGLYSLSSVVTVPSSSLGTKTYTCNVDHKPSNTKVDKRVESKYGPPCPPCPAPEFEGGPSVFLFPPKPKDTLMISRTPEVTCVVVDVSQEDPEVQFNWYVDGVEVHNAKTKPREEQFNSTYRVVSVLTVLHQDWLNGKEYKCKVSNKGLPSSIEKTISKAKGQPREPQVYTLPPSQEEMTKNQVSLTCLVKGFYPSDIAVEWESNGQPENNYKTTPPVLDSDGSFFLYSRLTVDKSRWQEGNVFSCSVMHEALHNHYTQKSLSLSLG
light: SYVLTQPPSVSVAPGQTARITCGGSNIGSESVHWYQQKPGQAPVLVVYSESDRPSGIPERFSGSNSGNTATLTISRVEAGDEADYYCQVWEGESDHVVFGGGTKLTVLGQPKANPTVTLFPPSSEELQANKATLVCLISDFYPGAVTVAWKADGSPVKAGVETTKPSKQSNNKYAASSYLSLTPEQWKSHRSYSCQVTHEGSTVEKTVAPTECS
In-Cell Western pERK EC50, primary human adipocytes [1]: 0.101 nmol/L

B3: Ab0428 (antibody, human IgG1, lambda)
heavy: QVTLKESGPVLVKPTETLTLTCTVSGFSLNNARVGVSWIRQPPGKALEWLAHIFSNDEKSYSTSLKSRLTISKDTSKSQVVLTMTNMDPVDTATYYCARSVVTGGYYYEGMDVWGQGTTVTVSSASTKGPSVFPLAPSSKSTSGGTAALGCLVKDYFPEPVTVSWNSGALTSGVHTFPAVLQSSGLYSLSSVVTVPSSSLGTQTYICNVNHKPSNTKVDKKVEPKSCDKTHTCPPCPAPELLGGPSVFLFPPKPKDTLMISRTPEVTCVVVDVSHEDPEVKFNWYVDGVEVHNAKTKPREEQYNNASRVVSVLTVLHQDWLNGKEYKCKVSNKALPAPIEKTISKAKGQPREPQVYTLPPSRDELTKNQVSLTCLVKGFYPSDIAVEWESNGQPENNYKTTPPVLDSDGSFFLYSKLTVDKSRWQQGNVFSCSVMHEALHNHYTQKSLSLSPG
light: B2 light
In-Cell Western pERK EC50, primary human adipocytes [1]: 0.072 nmol/L

B8: 16H7 variant with light chain substitution Q88A (antibody, V domains shown)
VH: not shown
VL: SYVLTQPPSVSVAPGQTARITCGGNNIGSESVHWYQQKPGQAPVLVVYDDSDRPSGIPERFSGSNSGNTATLTISRVEAGDEADYYCAVWDGNSDHVVFGGGTKLTVLG
Mean E max [2]: 108% | Mean EC50 [2]: 0.133 nM | koff (human beta-Klotho (KLB) [3]): 0.00011 s⁻¹

B9: 16H7 variant with single point mutation V98Q in the light chain (antibody, V domains shown)
VH: not shown
VL: B8 VL with A88Q, V98Q
notes: Tested from HEK293-F supernatant
Mean E max (%), Luciferase gene reporter assay [4]: 111% | Mean EC50 (nM), Luciferase gene reporter assay [4]: 0.121 nM | koff (human beta-Klotho (KLB) [5]): 3.7e-05 s⁻¹

B12: 16H7 variant with light chain substitution Q88G (antibody, V domains shown)
VH: not shown
VL: B8 VL with A88G
Mean E max [2]: 110% | Mean EC50 [2]: 0.129 nM | koff (human beta-Klotho (KLB) [3]): 0.00017 s⁻¹

B14: 16H7 variant with light chain substitution Q88L (antibody, V domains shown)
VH: not shown
VL: B8 VL with A88L
Mean E max [2]: 107% | Mean EC50 [2]: 0.134 nM | koff (human beta-Klotho (KLB) [3]): 9.9e-05 s⁻¹

B15: 16H7 variant with light chain substitution Q88M (antibody, V domains shown)
VH: not shown
VL: B8 VL with A88M
Mean E max [2]: 90% | Mean EC50 [2]: 0.104 nM | koff (human beta-Klotho (KLB) [3]): 9.9e-05 s⁻¹

B17: 16H7 variant with light chain substitution Q88S (antibody, V domains shown)
VH: not shown
VL: B8 VL with A88S
Mean E max [2]: 104%

Second part, the binder after the results:

In-Cell Western pERK EC50, primary human adipocytes [1]: 0.206 nmol/L
B1: human FGF21 (ligand)
chain: GHPIPDSSPLLQFGGQVRQRYLYTDDAQQTEAHLEIREDGTVGGAADQSPESLLQLKALKPGVIQILGVKTSRFLCQRPDGALYGSLHFDPEACSFRELLLEDGYNVYQSEAHGLPLHLPGNKSPHRDPAPRGPARFLPLPGLPPAPPEPPGILAPQPPDVGSSDPLSMVGPSQGRSPSYAS

In-Cell Western pERK EC50, primary human adipocytes [1]: 0.142 nmol/L
B4: Ab0335 (antibody, human IgG4 S228P, lambda)
heavy: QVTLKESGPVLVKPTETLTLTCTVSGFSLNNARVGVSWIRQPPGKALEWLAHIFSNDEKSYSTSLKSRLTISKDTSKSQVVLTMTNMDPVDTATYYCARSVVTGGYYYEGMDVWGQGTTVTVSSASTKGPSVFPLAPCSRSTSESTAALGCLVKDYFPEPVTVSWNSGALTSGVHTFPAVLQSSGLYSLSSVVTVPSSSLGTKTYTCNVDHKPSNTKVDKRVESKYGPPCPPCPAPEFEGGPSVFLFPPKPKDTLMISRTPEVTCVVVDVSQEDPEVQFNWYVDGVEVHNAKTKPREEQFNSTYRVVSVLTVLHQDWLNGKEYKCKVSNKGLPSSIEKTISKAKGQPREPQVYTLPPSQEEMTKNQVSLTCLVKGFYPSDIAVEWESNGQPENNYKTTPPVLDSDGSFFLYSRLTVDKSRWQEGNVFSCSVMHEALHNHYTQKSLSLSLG
light: B2 light with E50A

In-Cell Western pERK EC50, primary human adipocytes [1]: 0.156 nmol/L
B5: Ab0351 (antibody, human IgG4 S228P, lambda)
heavy: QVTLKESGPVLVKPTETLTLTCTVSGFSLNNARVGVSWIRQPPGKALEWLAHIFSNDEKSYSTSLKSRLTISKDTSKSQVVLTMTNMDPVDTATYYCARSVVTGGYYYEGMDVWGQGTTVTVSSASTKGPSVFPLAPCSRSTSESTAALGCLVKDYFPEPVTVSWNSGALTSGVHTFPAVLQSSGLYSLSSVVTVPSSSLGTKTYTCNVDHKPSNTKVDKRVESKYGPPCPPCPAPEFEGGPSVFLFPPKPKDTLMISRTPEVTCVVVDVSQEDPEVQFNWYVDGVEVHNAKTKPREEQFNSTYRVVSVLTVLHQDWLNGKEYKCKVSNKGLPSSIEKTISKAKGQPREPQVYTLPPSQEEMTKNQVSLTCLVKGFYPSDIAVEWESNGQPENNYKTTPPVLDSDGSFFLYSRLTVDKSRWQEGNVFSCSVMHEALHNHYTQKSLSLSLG
light: B2 light with S49E

In-Cell Western pERK EC50, primary human adipocytes [1]: 0.116 nmol/L
B6: Ab0430 (antibody, human IgG1, lambda)
heavy: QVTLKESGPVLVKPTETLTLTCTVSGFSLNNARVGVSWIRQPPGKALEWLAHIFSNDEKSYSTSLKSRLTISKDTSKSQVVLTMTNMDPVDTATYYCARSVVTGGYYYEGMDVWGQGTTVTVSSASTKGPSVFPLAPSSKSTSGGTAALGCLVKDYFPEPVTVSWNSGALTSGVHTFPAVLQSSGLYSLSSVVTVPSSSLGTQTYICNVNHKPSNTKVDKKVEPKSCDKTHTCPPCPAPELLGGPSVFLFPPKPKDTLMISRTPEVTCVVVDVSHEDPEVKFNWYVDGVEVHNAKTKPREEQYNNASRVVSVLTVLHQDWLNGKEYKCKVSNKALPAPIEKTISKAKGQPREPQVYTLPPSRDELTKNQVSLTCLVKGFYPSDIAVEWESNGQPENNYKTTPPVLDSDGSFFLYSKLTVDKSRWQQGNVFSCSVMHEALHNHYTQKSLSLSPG
light: B2 light with S49E

In-Cell Western pERK EC50, primary human adipocytes [1]: 0.078 nmol/L
B7: Ab0429 (antibody, human IgG1, lambda)
heavy: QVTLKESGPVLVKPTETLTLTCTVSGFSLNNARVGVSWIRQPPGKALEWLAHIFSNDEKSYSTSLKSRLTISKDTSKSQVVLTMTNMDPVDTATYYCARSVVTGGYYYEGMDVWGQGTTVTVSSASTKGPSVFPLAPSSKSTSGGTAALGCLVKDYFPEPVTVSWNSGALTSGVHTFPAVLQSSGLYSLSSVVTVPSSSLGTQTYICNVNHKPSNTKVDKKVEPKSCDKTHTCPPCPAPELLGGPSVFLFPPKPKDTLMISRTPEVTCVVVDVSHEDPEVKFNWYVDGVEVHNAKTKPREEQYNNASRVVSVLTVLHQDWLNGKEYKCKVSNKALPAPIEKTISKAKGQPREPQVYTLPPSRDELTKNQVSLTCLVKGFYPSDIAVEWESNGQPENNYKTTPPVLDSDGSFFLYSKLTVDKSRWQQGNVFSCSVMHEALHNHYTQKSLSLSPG
light: B2 light with E50A

Mean E max (%), Luciferase gene reporter assay [4]: 99% | Mean EC50 (nM), Luciferase gene reporter assay [4]: 0.099 nM | koff (human beta-Klotho (KLB) [5]): 5.6e-05 s⁻¹
B10: 16H7 variant with single point mutation V98W in the light chain (antibody, V domains shown)
VH: not shown
VL: B8 VL with A88Q, V98W
notes: as for B9

Mean E max (%), Luciferase gene reporter assay [4]: 99% | Mean EC50 (nM), Luciferase gene reporter assay [4]: 0.099 nM | koff (human beta-Klotho (KLB) [5]): 0.00011 s⁻¹
B11: 16H7 variant with single point mutation V98R in the light chain (antibody, V domains shown)
VH: not shown
VL: B8 VL with A88Q, V98R
notes: as for B9

Mean E max (%), Luciferase gene reporter assay [4]: 100% | Mean EC50 (nM), Luciferase gene reporter assay [4]: 0.109 nM | koff (human beta-Klotho (KLB) [5]): 5.9e-05 s⁻¹
B13: 16H7 variant with single point mutation V98Y in the light chain (antibody, V domains shown)
VH: not shown
VL: B8 VL with A88Q, V98Y
notes: as for B9

Mean E max (%), Luciferase gene reporter assay [4]: 99% | Mean EC50 (nM), Luciferase gene reporter assay [4]: 0.088 nM | koff (human beta-Klotho (KLB) [5]): 3.1e-05 s⁻¹
B16: 16H7 variant with single point mutation V98T in the light chain (antibody, V domains shown)
VH: not shown
VL: B8 VL with A88Q, V98T
notes: as for B9

From US20220010021A1 (Sanofi, published 2022)
